Test system: S9.6 anti-DNA:RNA hybrid monoclonal antibody, gold conjugate
Assay: immuno electron microscopy
Details: 10 ug/mL S9.6-gold, psoralen cross-linked, co-transcriptional R-loop (RNA hybrid), S9.6-gold 10 ug/mL with 80-100 ng pFC53, 1 h at 37 C, then 0.2% glutaraldehyde 15 min at 37 C, labeling buffer, salt and pH not given

With “pFC53 circular, T3-transcribed, R-loop in mAirn” as the substance, how does the binding signal (% of molecules labeled) read?
Its binding signal (% of molecules labeled) is 50.

“pFC53 linear, T3-transcribed, R-loop in mAirn” was tested. Which binding signal (% of molecules labeled) (labels cluster in Airn region) did it give?
The binding signal (% of molecules labeled) was 50.

— PMC10023573
